Data taken from publication PMC4814116, “Design of Novel Relaxase Substrates Based on Rolling Circle Replicases for Bioconjugation to DNA Nanostructures”.

T1: TrwCR (N-terminal relaxase domain of TrwC) (UniProt Q47673 1-293)
T1 sequence: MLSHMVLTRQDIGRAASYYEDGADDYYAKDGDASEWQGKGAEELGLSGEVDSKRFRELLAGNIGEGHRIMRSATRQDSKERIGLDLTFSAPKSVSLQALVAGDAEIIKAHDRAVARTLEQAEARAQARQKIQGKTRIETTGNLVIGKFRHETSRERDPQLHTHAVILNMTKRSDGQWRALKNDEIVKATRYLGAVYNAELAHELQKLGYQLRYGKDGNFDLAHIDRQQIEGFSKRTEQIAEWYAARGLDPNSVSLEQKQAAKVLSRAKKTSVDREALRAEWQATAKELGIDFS

T2: MobAR (minMobA) (plasmid RSF1010, UniProt P07112 1-186)
T2 sequence: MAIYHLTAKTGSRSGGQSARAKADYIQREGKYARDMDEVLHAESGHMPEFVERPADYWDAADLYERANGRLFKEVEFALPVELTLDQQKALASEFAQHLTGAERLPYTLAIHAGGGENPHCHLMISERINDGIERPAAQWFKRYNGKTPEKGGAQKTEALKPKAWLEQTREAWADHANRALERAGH

T3: TraIR (N-terminal domain of TraI) (plasmid RP4, UniProt Q00191 1-270)
T3 sequence: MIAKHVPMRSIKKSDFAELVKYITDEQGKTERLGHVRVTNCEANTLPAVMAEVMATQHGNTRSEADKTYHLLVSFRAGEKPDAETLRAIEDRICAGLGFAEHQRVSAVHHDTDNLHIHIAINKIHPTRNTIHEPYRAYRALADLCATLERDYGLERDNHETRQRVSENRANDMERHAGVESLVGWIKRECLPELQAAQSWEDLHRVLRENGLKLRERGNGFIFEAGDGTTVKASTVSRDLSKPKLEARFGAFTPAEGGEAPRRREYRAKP

B1: R388 H(16+16) (structured_DNA)
DNA: CCGGTGCGTATTGTCTATAGCCCGCGCACCGG
B2: R388 H(23+23) (structured_DNA)
DNA: AACCGGCTAGGTGCGTATTGTCTATAGCCCACGCACCTAGCCGGTT
B3: R388 H(23+26) (structured_DNA)
DNA: AACCGGCTAGGTGCGTATTGTCTATAGCCCAGATCGCACCTAGCCGGTT
B4: R388 R(7+27) (structured_DNA)
DNA: ATTGTCTATAGCCCAGATCGCACCGAAAGGTGCG
B5: R388 R(8+14) (ssDNA)
DNA: TATTGTCTATAGCCCACGCACC
B6: R388 W(14+14) (ssDNA)
DNA: GGTGCGTATTGTCTATAGCCCAGATTTA
B7: R388 H(14+12) (structured_DNA)
DNA: GGTGCGTATTGTCTATAGCGCGCACC
B8: R388 H(14+13) (structured_DNA)
DNA: GGTGCGTATTGTCTATAGCCGCGCACC
B9: R388 H(14+15) (structured_DNA)
DNA: GGTGCGTATTGTCTATAGCCCAGCGCACC
B10: R388 H(14+14) (structured_DNA)
DNA: GGTGCGTATTGTCTATAGCCCGCGCACC
B11: R388 H(14+17) (structured_DNA)
DNA: GGTGCGTATTGTCTATAGCCCAGATCGCACC
B12: R388 H(14+8) (structured_DNA)
DNA: GGTGCGTATTGTCTATCGCACC
B13: R388 W(25+18) (structured_DNA)
DNA: GCGCACCGAAAGGTGCGTATTGTCTATAGCCCAGATTTAAGGA
B14: R388 R(8+24) (structured_DNA)
DNA: TATTGTCTATAGCCCACGCACCGAAAGGTGCG
B15: R388 H(14+10) (structured_DNA)
DNA: GGTGCGTATTGTCTATAGCGCACC
B16: R388 R(8+27) (structured_DNA)
DNA: TATTGTCTATAGCCCAGATCGCACCGAAAGGTGCG
B17: RSF1010 HQ(18+19) (structured_DNA)
DNA: GAGAAACCGGTAAGTGCGCCCTCCCGATCAGTTTCTC
B18: RSF1010 WQ(23+7) (structured_DNA)
DNA: CCGGTTGAAAACCGGTAAGTGCGCCCTCCCC
B19: RSF1010 HQ(18+16) (structured_DNA)
DNA: GAGAAACCGGTAAGTGCGCCCTCCCCAGTTTCTC
B20: RSF1010 WQ(30+7) (structured_DNA)
DNA: CAGTTTCTCGAAGAGAAACCGGTAAGTGCGCCCTCCC
B21: RP4 WP(15+6) (ssDNA)
DNA: ACTTCACCTATCCTGCCCGGC
B22: RP4 WP(24+8) (structured_DNA)
DNA: GTGAAGGAAACTTCACCTATCCTGCCCGGCTG
B23: RP4 RP(8+24) (structured_DNA)
DNA: CTATCCTGCCCGGCTGGTGAAGGAAACTTCAC
B24: R388 R(4+27) (structured_DNA)
DNA: GTCTATAGCCCAGATCGCACCGAAAGGTGCG
B25: R388 R(0+27) (structured_DNA)
DNA: ATAGCCCAGATCGCACCGAAAGGTGCG
B26: R388 R(1+27) (structured_DNA)
DNA: TATAGCCCAGATCGCACCGAAAGGTGCG

These binders were tested against T1, TrwCR (N-terminal relaxase domain of …) (assay: gel filtration; EDTA; Covalent complex: 15 uM oligo, 37 C 1 h, 5 mM MgCl2, 15 uM EDTA; TrwCR 10 mM Tris pH 7.6, 375 mM NaCl; MobAR 25 mM Tris pH 8.0, 225 mM NaCl; TraIR 10 mM Tris pH 7.6, 225 mM NaCl. EMSA: 50 nM oligo, 10 mM Tris pH 7.6, 100 mM NaCl, 1 mM EDTA, RT 30 min. Gel filtration: 100 mM Tris pH 7.6, 200 mM NaCl, EDTA). Details: protein: recombinant; hairpin.

Question: Does B1 bind?
Answer: Result: binds

Question: Does B2 bind?
Answer: Result: binds

Question: Does B3 bind?
Answer: Result: binds

Each binder was assayed against T1, TrwCR (N-terminal relaxase domain of …) (assay: gel filtration; EDTA; slight shift; Covalent complex: 15 uM oligo, 37 C 1 h, 5 mM MgCl2, 15 uM EDTA; TrwCR 10 mM Tris pH 7.6, 375 mM NaCl; MobAR 25 mM Tris pH 8.0, 225 mM NaCl; TraIR 10 mM Tris pH 7.6, 225 mM NaCl. EMSA: 50 nM oligo, 10 mM Tris pH 7.6, 100 mM NaCl, 1 mM EDTA, RT 30 min. Gel filtration: 100 mM Tris pH 7.6, 200 mM NaCl, EDTA). Details: protein: recombinant; hairpin.

Question: Does B4 bind?
Answer: Result: binds

What follows are binders tested against T1, TrwCR (N-terminal relaxase domain of …) (assay: SDS-PAGE covalent complex; 5 mM Mg2+; Covalent complex: 15 uM oligo, 37 C 1 h, 5 mM MgCl2, 15 uM EDTA; TrwCR 10 mM Tris pH 7.6, 375 mM NaCl; MobAR 25 mM Tris pH 8.0, 225 mM NaCl; TraIR 10 mM Tris pH 7.6, 225 mM NaCl. EMSA: 50 nM oligo, 10 mM Tris pH 7.6, 100 mM NaCl, 1 mM EDTA, RT 30 min. Gel filtration: 100 mM Tris pH 7.6, 200 mM NaCl, EDTA). Details: protein: recombinant.

Question: For B5, which binding signal is on record?
Answer: Its binding signal is 30.2 ± 4.9 % covalent complex.

Question: For B6, which binding signal is on record?
Answer: The binding signal was 19.8 ± 1.9 % covalent complex.

Same assay, conditions: protein: recombinant; hairpin

Question: Which binding signal does the source give for B7 here?
Answer: The binding signal was 25.5 ± 3.1 % covalent complex.

Question: Which binding signal does the source give for B8 here?
Answer: Its binding signal is 23.3 ± 2.9 % covalent complex.

Question: With B9 as the binder, how does the binding signal read?
Answer: Its binding signal is 19.6 ± 1.4 % covalent complex.

Question: For B10, which binding signal is on record?
Answer: Its binding signal is 26.8 ± 4.7 % covalent complex.

Question: B11 was tested. Which binding signal did it give?
Answer: The binding signal was 22.3 ± 6.1 % covalent complex.

Question: Which binding signal does the source give for B12 here?
Answer: Its binding signal is 22.4 ± 5.7 % covalent complex.

Question: For B13, which binding signal is on record?
Answer: The binding signal was 24.7 ± 2.1 % covalent complex.

Question: For B14, which binding signal is on record?
Answer: The binding signal was 45.3 ± 6.6 % covalent complex.

Question: B15 was tested. Which binding signal did it give?
Answer: Its binding signal is 23 ± 4.7 % covalent complex.

Question: B16 was tested. Which binding signal did it give?
Answer: The binding signal was 44.7 ± 1 % covalent complex.

These binders were tested against T2, MobAR (minMobA) in the same assay as above. Details: protein: recombinant; hairpin.

Question: Which binding signal does the source give for B17 here?
Answer: Its binding signal is 9 ± 3.1 % covalent complex.

Question: B18 was tested. Which binding signal did it give?
Answer: Its binding signal is 41.4 ± 1.3 % covalent complex.

Question: How did the binding signal turn out when B19 was run?
Answer: The binding signal was 13.1 ± 4.2 % covalent complex.

Question: For B20, which binding signal is on record?
Answer: Its binding signal is 43.9 ± 1.4 % covalent complex.

What follows are binders tested against T3, TraIR (N-terminal domain of TraI) in the same assay as above. Details: protein: recombinant.

Question: For B21, which binding signal is on record?
Answer: Its binding signal is 24.4 ± 5.7 % covalent complex.

Same assay, conditions: protein: recombinant; hairpin

Question: How did the binding signal turn out when B22 was run?
Answer: Its binding signal is 21.3 ± 0.9 % covalent complex.

Question: With B23 as the binder, how does the binding signal read?
Answer: Its binding signal is 23.7 ± 2.7 % covalent complex.

The binders below were run against T1, TrwCR (N-terminal relaxase domain of …) (assay: SDS-PAGE covalent complex; 5 mM Mg2+; text says product not detected; Covalent complex: 15 uM oligo, 37 C 1 h, 5 mM MgCl2, 15 uM EDTA; TrwCR 10 mM Tris pH 7.6, 375 mM NaCl; MobAR 25 mM Tris pH 8.0, 225 mM NaCl; TraIR 10 mM Tris pH 7.6, 225 mM NaCl. EMSA: 50 nM oligo, 10 mM Tris pH 7.6, 100 mM NaCl, 1 mM EDTA, RT 30 min. Gel filtration: 100 mM Tris pH 7.6, 200 mM NaCl, EDTA). Details: protein: recombinant; hairpin.

Question: How did the binding signal turn out when B24 was run?
Answer: The binding signal was 9.9 ± 3.9 % covalent complex.

Question: Which binding signal does the source give for B25 here?
Answer: The binding signal was 5.8 ± 1.9 % covalent complex.

Question: For B26, which binding signal is on record?
Answer: The binding signal was 9.9 ± 3.2 % covalent complex.
